Source: paper PMC9898208

Experiments:
Test in all cases: single-channel current recording
OmpG^L6-SA1.1 (E. coli) = OmpG^L6-SA1.1 (E. coli) (UniProt P76045)
[1] = target: OmpG^L3-FLAG/L6-SA1.1 (E. coli) (UniProt P76045)
[2] = target: OmpG^L3/L6-SA1.1 (E. coli) (UniProt P76045)
Chain of OmpG^L3/L6-SA1.1 (E. coli) (P76045 22-301): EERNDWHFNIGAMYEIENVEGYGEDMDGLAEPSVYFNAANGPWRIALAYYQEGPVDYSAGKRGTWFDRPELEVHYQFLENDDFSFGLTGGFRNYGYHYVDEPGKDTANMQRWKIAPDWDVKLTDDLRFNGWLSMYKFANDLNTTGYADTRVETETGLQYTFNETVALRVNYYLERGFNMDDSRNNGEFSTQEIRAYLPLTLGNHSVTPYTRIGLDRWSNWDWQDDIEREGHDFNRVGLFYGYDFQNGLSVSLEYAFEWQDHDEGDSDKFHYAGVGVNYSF

Chain of OmpG^L6-SA1.1 (E. coli) (P76045 22-301): as above
Chain of OmpG^L3-FLAG/L6-SA1.1 (E. coli) (P76045 22-301): as above

- Kd (OmpG^L6-SA1.1 (E. coli)): 10.1 µM
- koff (OmpG^L6-SA1.1 (E. coli)): 0.78 s⁻¹
- kon (OmpG^L6-SA1.1 (E. coli)): 77600 M⁻¹ s⁻¹
- Kd [1]: 7.51 µM
- koff [1]: 0.55 s⁻¹
- kon [1]: 72200 M⁻¹ s⁻¹
- Kd [2]: 0.03 µM
- k'Off of the sub-events within a discrete binding event [2]: 0.7 s⁻¹
- k'On 1 of the sub-events (rebinding) [2]: 3.9e+10 M⁻¹ s⁻¹
- k'On 2 of the sub-events (rebinding) [2]: 4.4e+09 M⁻¹ s⁻¹
- koff [2]: 0.01 s⁻¹
- kon [2]: 326000 M⁻¹ s⁻¹
- tau'On 1 of the sub-events (rebinding) [2]: 2.56 ms
- tau'On 2 of the sub-events (rebinding) [2]: 22.9 ms
Substance: streptavidin (from UniProt P22629 25-183) (natural protein)
